From US20130156786A1 (Sanofi, published 2013) come the findings set out here.

Assay [1] deals with T1, α2 integrin on HUVEC cells.
T1 construct: The sheet names no target; also called HUVEC cells (promocell C12200, lot 6062203)
Briefly: Scatchard plot (B/F against B (RLU)) of MesoScale electrochemiluminescence binding to HUVEC cells coated on plates; drawn table: SD 0.01291, CV(%) 6.0, 95%CI [0.1899; 0.2425]. Here is the method:
(§1) To further assess the binding properties of the anti-α2 integrin mAb, a cell based assay with HUVEC cells (promocell C12200, lot 6062203) was performed. Cells were coated onto high binding plates (Meso Scale Discovery (MSD), L15XB-3) in PBS (10.000 cells/well) and incubated for 2 hrs at room temperature. Then the plates were emptied, washed twice with PBS and blocked with blocking solution (MSD, R93BA-4) for 90 min. After emptying and washing the plates again as described above, serial dilutions of anti α2-mAb were added and incubated with the cells for 1 h at room temperature. Following another washing step as above Read buffer T without surfactant (Meso scale Discovery, R92TD-2) was added. Electrochemilumenescence was read in a suitable device (Meso scale Discovery, Sector imager). Scatchard plot analysis was used to determine KD of the tested mAbs (see FIG. 1).

Assay [2] has as its target T1, α2 integrin on HUVEC cells. Description: MesoScale electrochemiluminescence binding to HUVEC cells coated on plates, serial dilutions of the mAb. Here is the method:
as §1

Assay [3] addresses dog α2β1 integrin (whole blood) (dog). Briefly: FACS on whole blood, PE-coupled goat anti-mouse IgG.
The target in assay [4] is T2, mouse α2β1 integrin (whole blood) (mouse, UniProt Q62469 27-1178; P09055 21-798).
T2 construct: whole, on cells
T2 sequence (Q62469 27-1178, chain 1 of 2): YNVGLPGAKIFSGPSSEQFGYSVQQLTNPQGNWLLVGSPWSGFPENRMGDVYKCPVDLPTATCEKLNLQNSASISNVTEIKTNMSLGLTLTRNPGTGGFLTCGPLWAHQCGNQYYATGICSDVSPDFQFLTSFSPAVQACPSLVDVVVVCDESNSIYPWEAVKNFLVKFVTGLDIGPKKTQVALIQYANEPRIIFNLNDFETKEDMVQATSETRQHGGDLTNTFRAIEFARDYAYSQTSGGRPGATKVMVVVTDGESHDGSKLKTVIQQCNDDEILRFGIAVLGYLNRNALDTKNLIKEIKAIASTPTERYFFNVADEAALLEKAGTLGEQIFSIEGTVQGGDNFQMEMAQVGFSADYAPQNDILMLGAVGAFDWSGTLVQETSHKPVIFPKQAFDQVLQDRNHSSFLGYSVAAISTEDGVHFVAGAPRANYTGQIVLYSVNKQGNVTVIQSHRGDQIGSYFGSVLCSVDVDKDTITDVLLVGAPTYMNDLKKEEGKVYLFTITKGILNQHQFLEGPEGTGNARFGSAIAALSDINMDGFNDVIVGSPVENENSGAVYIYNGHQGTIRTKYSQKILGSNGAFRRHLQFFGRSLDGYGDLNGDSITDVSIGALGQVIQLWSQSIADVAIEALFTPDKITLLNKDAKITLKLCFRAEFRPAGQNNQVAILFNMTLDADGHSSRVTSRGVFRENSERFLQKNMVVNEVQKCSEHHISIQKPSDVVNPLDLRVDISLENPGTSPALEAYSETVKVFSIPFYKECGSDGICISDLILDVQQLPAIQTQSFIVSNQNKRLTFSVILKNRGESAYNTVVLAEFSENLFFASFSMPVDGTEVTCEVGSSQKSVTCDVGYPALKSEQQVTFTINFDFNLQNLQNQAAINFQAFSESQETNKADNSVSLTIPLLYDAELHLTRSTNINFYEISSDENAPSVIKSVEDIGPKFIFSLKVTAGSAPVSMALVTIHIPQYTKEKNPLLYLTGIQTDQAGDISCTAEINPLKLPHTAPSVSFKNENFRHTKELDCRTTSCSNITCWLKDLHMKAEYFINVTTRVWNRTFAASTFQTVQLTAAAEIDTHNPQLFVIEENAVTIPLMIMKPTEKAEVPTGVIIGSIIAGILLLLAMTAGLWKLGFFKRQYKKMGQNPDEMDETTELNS
T2 sequence (P09055 21-798, chain 2 of 2): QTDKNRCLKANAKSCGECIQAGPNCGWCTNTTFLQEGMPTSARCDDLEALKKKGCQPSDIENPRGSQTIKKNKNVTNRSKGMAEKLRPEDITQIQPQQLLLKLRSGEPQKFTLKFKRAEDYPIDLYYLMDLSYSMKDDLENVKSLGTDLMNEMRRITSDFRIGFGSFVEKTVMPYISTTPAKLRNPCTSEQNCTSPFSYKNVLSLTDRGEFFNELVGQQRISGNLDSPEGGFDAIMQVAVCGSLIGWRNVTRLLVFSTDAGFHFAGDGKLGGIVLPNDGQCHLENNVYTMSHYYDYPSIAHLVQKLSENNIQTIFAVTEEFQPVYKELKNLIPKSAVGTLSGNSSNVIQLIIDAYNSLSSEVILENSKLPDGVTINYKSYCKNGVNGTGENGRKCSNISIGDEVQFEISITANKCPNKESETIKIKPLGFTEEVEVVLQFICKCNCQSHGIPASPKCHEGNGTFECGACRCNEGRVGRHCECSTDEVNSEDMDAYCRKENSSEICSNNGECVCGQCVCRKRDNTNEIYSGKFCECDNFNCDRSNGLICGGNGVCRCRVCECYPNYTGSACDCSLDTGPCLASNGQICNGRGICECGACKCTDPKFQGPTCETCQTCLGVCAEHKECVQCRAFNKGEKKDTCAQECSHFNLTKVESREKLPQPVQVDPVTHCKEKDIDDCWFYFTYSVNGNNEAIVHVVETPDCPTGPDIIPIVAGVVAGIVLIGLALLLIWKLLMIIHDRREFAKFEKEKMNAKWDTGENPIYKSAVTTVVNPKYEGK
The assay is described as above.

Assay [5] has as its target T3, rat α2β1 integrin (whole blood) (rat, UniProt A0A0G2K470 27-1178; P49134 21-798).
T3 construct: whole, on cells
Described as above.

Assay [6] concerns the target rabbit α2β1 integrin (whole blood) (rabbit, UniProt G1T180 31-1185; A0A5F9C3C4 21-798). The description is as above.

T1 sequence (alpha, as listed by the source limits assumed): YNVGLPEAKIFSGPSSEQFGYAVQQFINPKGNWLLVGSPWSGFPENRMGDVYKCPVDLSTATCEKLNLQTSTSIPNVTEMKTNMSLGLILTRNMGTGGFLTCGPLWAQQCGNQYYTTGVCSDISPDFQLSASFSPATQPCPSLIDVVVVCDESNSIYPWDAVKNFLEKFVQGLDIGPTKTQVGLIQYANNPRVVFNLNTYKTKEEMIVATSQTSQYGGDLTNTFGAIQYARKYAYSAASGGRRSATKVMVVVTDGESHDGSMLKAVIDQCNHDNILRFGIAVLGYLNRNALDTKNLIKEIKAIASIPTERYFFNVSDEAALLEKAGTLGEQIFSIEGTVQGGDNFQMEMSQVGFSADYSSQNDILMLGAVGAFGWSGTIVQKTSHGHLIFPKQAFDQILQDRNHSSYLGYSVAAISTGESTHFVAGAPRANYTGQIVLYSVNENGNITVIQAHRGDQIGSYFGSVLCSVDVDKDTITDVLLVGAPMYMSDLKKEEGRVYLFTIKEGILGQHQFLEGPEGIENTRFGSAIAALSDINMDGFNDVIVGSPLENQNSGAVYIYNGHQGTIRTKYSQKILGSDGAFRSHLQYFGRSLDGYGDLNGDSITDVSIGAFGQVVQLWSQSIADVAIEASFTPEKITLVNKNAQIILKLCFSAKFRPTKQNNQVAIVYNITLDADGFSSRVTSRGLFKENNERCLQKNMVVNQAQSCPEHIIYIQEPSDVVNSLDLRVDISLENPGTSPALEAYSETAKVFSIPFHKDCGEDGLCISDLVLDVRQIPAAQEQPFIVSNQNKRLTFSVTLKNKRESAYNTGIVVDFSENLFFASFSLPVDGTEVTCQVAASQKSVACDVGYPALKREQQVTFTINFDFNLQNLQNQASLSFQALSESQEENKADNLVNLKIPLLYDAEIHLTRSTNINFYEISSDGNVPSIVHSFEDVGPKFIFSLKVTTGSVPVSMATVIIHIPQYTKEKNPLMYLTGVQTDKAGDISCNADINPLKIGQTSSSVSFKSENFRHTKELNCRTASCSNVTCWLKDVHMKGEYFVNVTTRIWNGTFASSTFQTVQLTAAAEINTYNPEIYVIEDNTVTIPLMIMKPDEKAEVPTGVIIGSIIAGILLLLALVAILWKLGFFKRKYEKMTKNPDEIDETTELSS
dog α2β1 integrin (whole blood) (dog), sequence (alpha, as listed by the source limits assumed, chain 1 of 2): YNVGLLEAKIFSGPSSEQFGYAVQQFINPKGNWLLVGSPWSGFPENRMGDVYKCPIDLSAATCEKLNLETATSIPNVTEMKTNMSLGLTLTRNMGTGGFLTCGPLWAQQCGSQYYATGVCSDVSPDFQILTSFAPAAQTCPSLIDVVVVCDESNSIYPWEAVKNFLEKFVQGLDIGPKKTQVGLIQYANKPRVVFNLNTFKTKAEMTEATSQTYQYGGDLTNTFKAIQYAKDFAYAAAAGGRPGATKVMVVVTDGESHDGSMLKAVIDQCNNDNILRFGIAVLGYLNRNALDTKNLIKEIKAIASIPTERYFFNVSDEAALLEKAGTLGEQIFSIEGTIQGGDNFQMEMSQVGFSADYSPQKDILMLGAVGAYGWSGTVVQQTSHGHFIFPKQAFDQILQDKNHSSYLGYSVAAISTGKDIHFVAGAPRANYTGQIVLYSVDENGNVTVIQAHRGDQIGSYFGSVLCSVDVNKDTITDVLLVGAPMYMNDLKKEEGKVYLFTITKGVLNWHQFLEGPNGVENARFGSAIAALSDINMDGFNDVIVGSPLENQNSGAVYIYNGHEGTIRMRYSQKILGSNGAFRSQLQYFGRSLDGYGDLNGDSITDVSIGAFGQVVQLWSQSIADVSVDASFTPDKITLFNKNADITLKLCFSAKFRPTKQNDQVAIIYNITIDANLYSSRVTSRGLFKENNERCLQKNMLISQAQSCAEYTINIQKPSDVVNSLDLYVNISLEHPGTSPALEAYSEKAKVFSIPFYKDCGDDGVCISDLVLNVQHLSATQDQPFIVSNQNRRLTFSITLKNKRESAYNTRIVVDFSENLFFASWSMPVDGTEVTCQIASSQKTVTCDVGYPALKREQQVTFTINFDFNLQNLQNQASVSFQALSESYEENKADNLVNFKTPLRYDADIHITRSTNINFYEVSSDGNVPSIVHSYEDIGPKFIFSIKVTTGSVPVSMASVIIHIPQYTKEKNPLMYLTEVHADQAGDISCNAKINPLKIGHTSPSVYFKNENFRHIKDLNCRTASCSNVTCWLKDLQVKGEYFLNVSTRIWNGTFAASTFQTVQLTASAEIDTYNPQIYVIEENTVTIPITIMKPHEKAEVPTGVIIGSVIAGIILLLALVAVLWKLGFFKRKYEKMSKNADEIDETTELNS
dog α2β1 integrin (whole blood) (dog), sequence (beta, as listed by the source limits assumed, chain 2 of 2): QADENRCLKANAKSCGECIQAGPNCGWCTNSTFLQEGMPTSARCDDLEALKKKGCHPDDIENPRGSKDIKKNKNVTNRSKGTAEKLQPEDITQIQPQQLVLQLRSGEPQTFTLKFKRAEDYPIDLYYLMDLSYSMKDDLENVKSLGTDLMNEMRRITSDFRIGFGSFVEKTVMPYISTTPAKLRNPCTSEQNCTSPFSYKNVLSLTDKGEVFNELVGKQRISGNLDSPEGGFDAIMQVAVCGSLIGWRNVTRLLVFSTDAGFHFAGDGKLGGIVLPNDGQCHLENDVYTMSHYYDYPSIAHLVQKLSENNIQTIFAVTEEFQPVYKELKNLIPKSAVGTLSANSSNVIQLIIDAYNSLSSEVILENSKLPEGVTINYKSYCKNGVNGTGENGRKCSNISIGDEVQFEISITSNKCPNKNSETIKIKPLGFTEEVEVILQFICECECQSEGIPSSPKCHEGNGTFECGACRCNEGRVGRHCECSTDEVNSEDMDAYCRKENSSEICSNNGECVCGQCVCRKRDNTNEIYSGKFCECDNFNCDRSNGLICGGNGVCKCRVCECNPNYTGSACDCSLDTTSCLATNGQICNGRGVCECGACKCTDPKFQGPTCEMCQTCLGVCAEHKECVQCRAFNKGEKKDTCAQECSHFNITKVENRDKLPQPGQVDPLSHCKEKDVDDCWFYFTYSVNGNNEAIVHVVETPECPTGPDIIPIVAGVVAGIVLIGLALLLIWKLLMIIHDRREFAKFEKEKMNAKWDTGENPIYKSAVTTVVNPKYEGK

B1: anti-α2 integrin mAb purified from hybridoma supernatant (murine, mCk, mIgG2a) (antibody)
heavy: QVQLHQPGAELVKPGAPVKLSCKASGYTFTSYWMNWVKQRPGRGLEWIGRIDPSDSETHYNQKFKDKATLTVDKSSSTAYIQLSSLTSEDSAVYYCAKVGRGYFDYWGQGTTLTVSSAKTTAPSVYPLAPVCGDTTGSSVTLGCLVKGYFPEPVTLTWNSGSLSSGVHTFPAVLQSDLYTLSSSVTVTSSTWPSQSITCNVAHPASSTKVDKKIEPRGPTIKPCPPCKCPAPNLLGGPSVFIFPPKIKDVLMISLSPIVTCVVVDVSEDDPDVQISWFVNNVEVHTAQTQTHREDYNSTLRVVSALPIQHQDWMSGKEFKCKVNNKDLPAPIERTISKPKGSVRAPQVYVLPPPEEEMTKKQVTLTCMVTDFMPEDIYVEWTNNGKTELNYKNTEPVLDSDGSYFMYSKLRVEKKNWVERNSYSCSVVHEGLHNHHTTKSFSRTPGK
light: NIVLTQSPASLAVSLGQRATISCRASESVESYGNSFIYWYQQKPGQAPKLLIYLASNLASGVPARFSGSGSRTDFTLTIDPVEADDAATYYCQQNNEDPYTFGGGTKLEIKRADAAPTVSIFPPSSEQLTSGGASVVCFLNNFYPKDINVKWKIDGSERQNGVLNSWTDQDSKDSTYSMSSTLTLTKDEYERHNSYTCEATHKTSTSPIVKSFNRNEC
notes: also called α2-integrin mAb from hybridoma; α2 mAb from hybridoma supernatant
In assay [1], B1 returned a dissociation constant (Kd) of 215 pM. The “EC50 (read off the curve)” value in assay [2] is around 200 pM. Moreover, the binding result in assay [3], in assay [4], in assay [5] and in assay [6] was “no binding” each time.
